Molecular target: T1, Akt (Homo sapiens, UniProt P31749)
T1 construct: host or cells: baculovirus-infected SF9 cells (Akt); peptides synthesized at the W. M. Keck Biotechnology Resource Center
Test: In vitro phosphorylation of eNOS peptides (1174-1194) by recombinant Akt
Type: biochemical
Conditions: n=5
Protocol: In studies identifying the labeled eNOS peptide, immunoprecipitated Akt was incubated with recombinant eNOS as above. The sample was run on SDS-PAGE, and the eNOS band digested in gel, and the resultant tryptic fragments purified by RP-HPLC. Peptide mass and ^32P incorporation were monitored and the prominent labeled peak further analyzed by mass spectrometry. In other experiments, peptides corresponding to the potential Akt phosphorylation site were synthesized, purified by HPLC and verified by mass spectrometry (W. M. Keck Biotechnology Resource Center, Yale University School of Medicine). The wild-type peptide was 1174[…]1194 (SEQ ID NO:2) and the mutant peptide was identical except S1179 was changed to an alanine. In vitro kinase reactions were essentially as described above incubating peptides (25 mg) with recombinant Akt (1 mg). Reactions were then spotted onto phosphocellulose filters and the amount of phosphate incorporated measured by Cerenkov counting.

T1 sequence (P31749 whole entry): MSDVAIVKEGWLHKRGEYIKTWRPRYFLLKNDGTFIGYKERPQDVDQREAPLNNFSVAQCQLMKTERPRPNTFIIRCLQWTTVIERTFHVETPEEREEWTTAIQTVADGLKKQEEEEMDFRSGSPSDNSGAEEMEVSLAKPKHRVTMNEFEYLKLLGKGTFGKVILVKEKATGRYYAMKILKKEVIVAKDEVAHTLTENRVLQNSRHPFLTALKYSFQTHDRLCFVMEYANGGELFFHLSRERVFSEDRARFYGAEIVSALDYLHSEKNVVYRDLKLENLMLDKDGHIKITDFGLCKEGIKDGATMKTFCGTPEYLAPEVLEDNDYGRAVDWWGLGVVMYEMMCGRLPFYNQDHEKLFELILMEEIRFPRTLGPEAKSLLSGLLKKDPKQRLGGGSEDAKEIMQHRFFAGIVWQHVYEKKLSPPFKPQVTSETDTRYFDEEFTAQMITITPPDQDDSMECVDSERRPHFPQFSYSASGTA

Substance: 1174RIRTQSFSLQERHLRGAVPWA1194 (listed as Bos sp.) [wild-type peptide]
- phosphate incorporated into peptide: 24.6±3.7 nmol phosphate/mg
